± gives the standard deviation of the averaged measurements.
Key:
[1] = test system: MCF7; assay: percentage of EdU-negative (G0-arrested) nuclei per well, 72 h; higher = more G0 arrest; details: reference: sequence is the full UniProt precursor, the tested protein was the secreted form or ectodomain
[2] = test system: hTERT-HMEC; assay: as above; details: reference: sequence is the full UniProt precursor, the tested protein was the secreted form or ectodomain
[3] = protein concentration 0.03125 µM
[4] = protein concentration 0.3125 µM
[5] = protein concentration 0.00975 µM
[6] = protein concentration 0.0975 µM
[7] = protein concentration 0.0205 µM
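Further: secreted proteins added to cultured cells, EdU pulse at the end, nuclei found by Hoechst imaging, EdU status from nuclear versus surrounding ring intensity ratio, PBS as neutral control.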

## MPGIKRILTVTILALCLPSPGNAQAQCTNGFDLDRQSGQCLDIDECRTIPEACRGDMMCVNQNGGYLCIPRTNPVYRGPYSNPYSTPYSGPYPAAAPPLSAPNYPTISRPLICRFGYQMDESNQCVDVDECATDSHQCNPTQICINTEGGYTCSCTDGYWLLEGQCLDIDECRYGYCQQLCANVPGSYSCTCNPGFTLNEDGRSCQDVNECATENPCVQTCVNTYGSFICRCDPGYELEEDGVHCSDMDECSFSEFLCQHECVNQPGTYFCSCPPGYILLDDNRSCQDINECEHRNHTCNLQQTCYNLQGGFKCIDPIRCEEPYLRISDNRCMCPAENPGCRDQPFTILYRDMDVVSGRSVPADIFQMQATTRYPGAYYIFQIKSGNEGREFYMRQTGPISATLVMTRPIKGPREIQLDLEMITVNTVINFRGSSVIRLRIYVSQYPF [Q9UBX5]
[1]; [3]
  percentage of EdU-negative: 27.1 ± 1%
[1]; [4]
  percentage of EdU-negative: 26.6 ± 2%
[2]; [3]
  percentage of EdU-negative: 4.99 ± 0.79%
[2]; [4]
  percentage of EdU-negative: 6.25 ± 1.1%

## MPGLRRDRLLTLLLLGALLSADLYFHLWPQVQRQLRPRERPRGCPCTGRASSLARDSAAAASDPGTIVHNFSRTEPRTEPAGGSHSGSSSKLQALFAHPLYNVPEEPPLLGAEDSLLASQEALRYYRRKVARWNRRHKMYREQMNLTSLDPPLQLRLEASWVQFHLGINRHGLYSRSSPVVSKLLQDMRHFPTISADYSQDEKALLGACDCTQIVKPSGVHLKLVLRFSDFGKAMFKPMRQQRDEETPVDFFYFIDFQRHNAEIAAFHLDRILDFRRVPPTVGRIVNVTKEILEVTKNEILQSVFFVSPASNVCFFAKCPYMCKTEYAVCGNPHLLEGSLSAFLPSLNLAPRLSVPNPWIRSYTLAGKEEWEVNPLYCDTVKQIYPYNNSQRLLNVIDMAIFDFLIGNMDRHHYEMFTKFGDDGFLIHLDNARGFGRHSHDEISILSPLSQCCMIKKKTLLHLQLLAQADYRLSDVMRESLLEDQLSPVLTEPHLLALDRRLQTILRTVEGCIVAHGQQSVIVDGPVEQLAPDSGQANLTS [Q96MK3]
[1]; protein concentration 0.014 µM
  percentage of EdU-negative: 24 ± 3.4%
[1]; protein concentration 0.14 µM
  percentage of EdU-negative: 30.6 ± 0.74%
[2]; protein concentration 0.014 µM
  percentage of EdU-negative: 6.29 ± 0.36%
[2]; protein concentration 0.14 µM
  percentage of EdU-negative: 27.9 ± 9.3%

## MPGPRRPAGSRLRLLLLLLLPPLLLLLRGSHAGNLTVAVVLPLANTSYPWSWARVGPAVELALAQVKARPDLLPGWTVRTVLGSSENALGVCSDTAAPLAAVDLKWEHNPAVFLGPGCVYAAAPVGRFTAHWRVPLLTAGAPALGFGVKDEYALTTRAGPSYAKLGDFVAALHRRLGWERQALMLYAYRPGDEEHCFFLVEGLFMRVRDRLNITVDHLEFAEDDLSHYTRLLRTMPRKGRVIYICSSPDAFRTLMLLALEAGLCGEDYVFFHLDIFGQSLQGGQGPAPRRPWERGDGQDVSARQAFQAAKIITYKDPDNPEYLEFLKQLKHLAYEQFNFTMEDGLVNTIPASFHDGLLLYIQAVTETLAHGGTVTDGENITQRMWNRSFQGVTGYLKIDSSGDRETDFSLWDMDPENGAFRVVLNYNGTSQELVAVSGRKLNWPLGYPPPDIPKCGFDNEDPACNQDHLSTLEVLALVGSLSLLGILIVSFFIYRKMQLEKELASELWRVRWEDVEPSSLERHLRSAGSRLTLSGRGSNYGSLLTTEGQFQVFAKTAYYKGNLVAVKRVNRKRIELTRKVLFELKHMRDVQNEHLTRFVGACTDPPNICILTEYCPRGSLQDILENESITLDWMFRYSLTNDIVKGMLFLHNGAICSHGNLKSSNCVVDGRFVLKITDYGLESFRDLDPEQGHTVYAKKLWTAPELLRMASPPVRGSQAGDVYSFGIILQEIALRSGVFHVEGLDLSPKEIIERVTRGEQPPFRPSLALQSHLEELGLLMQRCWAEDPQERPPFQQIRLTLRKFNRENSSNILDNLLSRMEQYANNLEELVEERTQAYLEEKRKAEALLYQILPHSVAEQLKRGETVQAEAFDSVTIYFSDIVGFTALSAESTPMQVVTLLNDLYTCFDAVIDNFDVYKVETIGDAYMVVSGLPVRNGRLHACEVARMALALLDAVRSFRIRHRPQEQLRLRIGIHTGPVCAGVVGLKMPRYCLFGDTVNTASRMESNGEALKIHLSSETKAVLEEFGGFELELRGDVEMKGKGKVRTYWLLGERGSSTRG
[1]; [5]
  percentage of EdU-negative: 23.4 ± 0.38%
[1]; [6]
  percentage of EdU-negative: 29.51 ± 0.041%
[2]; [5]
  percentage of EdU-negative: 4.49 ± 0.51%
[2]; [6]
  percentage of EdU-negative: 7.62 ± 0.42%

## MPGPRVWGKYLWRSPHSKGCPGAMWWLLLWGVLQACPTRGSVLLAQELPQQLTSPGYPEPYGKGQESSTDIKAPEGFAVRLVFQDFDLEPSQDCAGDSVTISFVGSDPSQFCGQQGSPLGRPPGQREFVSSGRSLRLTFRTQPSSENKTAHLHKGFLALYQTVAVNYSQPISEASRGSEAINAPGDNPAKVQNHCQEPYYQAAAAGALTCATPGTWKDRQDGEEVLQCMPVCGRPVTPIAQNQTTLGSSRAKLGNFPWQAFTSIHGRGGGALLGDRWILTAAHTIYPKDSVSLRKNQSVNVFLGHTAIDEMLKLGNHPVHRVVVHPDYRQNESHNFSGDIALLELQHSIPLGPNVLPVCLPDNETLYRSGLLGYVSGFGMEMGWLTTELKYSRLPVAPREACNAWLQKRQRPEVFSDNMFCVGDETQRHSVCQGDSGSVYVVWDNHAHHWVATGIVSWGIGCGEGYDFYTKVLSYVDWIKGVMNGKN [Q9NZP8]
[1]; [7]
  percentage of EdU-negative: 25.9 ± 0.29%
[1]; protein concentration 0.205 µM
  percentage of EdU-negative: 26.4 ± 0.027%
[2]; [7]
  percentage of EdU-negative: 6.35 ± 0.51%
[2]; protein concentration 0.205 µM
  percentage of EdU-negative: 7.52 ± 1.6%

## MPGPSPGLRRALLGLWAALGLGLFGLSAVSQEPFWADLQPRVAFVERGGSLWLNCSTNCPRPERGGLETSLRRNGTQRGLRWLARQLVDIREPETQPVCFFRCARRTLQARGLIRTFQRPDRVELMPLPPWQPVGENFTLSCRVPGAGPRASLTLTLLRGAQELIRRSFAGEPPRARGAVLTATVLARREDHGANFSCRAELDLRPHGLGLFENSSAPRELRTFSLSPDAPRLAAPRLLEVGSERPVSCTLDGLFPASEARVYLALGDQNLSPDVTLEGDAFVATATATASAEQEGARQLVCNVTLGGENRETRENVTIYSFPAPLLTLSEPSVSEGQMVTVTCAAGAQALVTLEGVPAAVPGQPAQLQLNATENDDRRSFFCDATLDVDGETLIKNRSAELRVLYAPRLDDSDCPRSWTWPEGPEQTLRCEARGNPEPSVHCARSDGGAVLALGLLGPVTRALSGTYRCKAANDQGEAVKDVTLTVEYAPALDSVGCPERITWLEGTEASLSCVAHGVPPPDVICVRSGELGAVIEGLLRVAREHAGTYRCEATNPRGSAAKNVAVTVEYGPRFEEPSCPSNWTWVEGSGRLFSCEVDGKPQPSVKCVGSGGATEGVLLPLAPPDPSPRAPRIPRVLAPGIYVCNATNRHGSVAKTVVVSAESPPEMDESTCPSHQTWLEGAEASALACAARGRPSPGVRCSREGIPWPEQQRVSREDAGTYHCVATNAHGTDSRTVTVGVEYRPVVAELAASPPGGVRPGGNFTLTCRAEAWPPAQISWRAPPGALNIGLSSNNSTLSVAGAMGSHGGEYECAATNAHGRHARRITVRVAGPWLWVAVGGAAGGAALLAAGAGLAFYVQSTACKKGEYNVQEAESSGEAVCLNGAGGGAGGAAGAEGGPEAAGGAAESPAEGEVFAIQLTSA [Q9UMF0]
[1]; protein concentration 0.015 µM
  percentage of EdU-negative: 26.9 ± 2.4%
[1]; protein concentration 0.15 µM
  percentage of EdU-negative: 36.9 ± 2.7%
[2]; protein concentration 0.015 µM
  percentage of EdU-negative: 5.32 ± 0.067%
[2]; protein concentration 0.15 µM
  percentage of EdU-negative: 90.88 ± 0.53%

From the supplement of paper PMC11316812
